This data set concerns the molecule itself. Briefly: cryo-EM structure; α-LTX at 0.5 mg/ml in 25 mM Tris-HCl pH 8.0, 150 mM NaCl, 0.1 mM CaCl2, 0.2 mM MgCl2; 2D classification and 3D reconstruction of two tetrameric states (prepore, pore).

Where “and” joins values, the source holds several entries; their conditions need not be identical. Equal values may be shown once.

B1: α-latrotoxin (natural protein)
chain: EGEDLTLEEKAEICSELELQQKYVDIASNIIGDLSSLPIAGKIAGTIAAAAMTATHVASGRLDIEQTLLGCSDLPFDQIKEVLENRFNEIDRKLDSHSAALEEITKLVEKSISVVEKTRKQMNKRFDEVMKSIQDAKVSPIISKINNFARYFDTEKERIRGLKLNDYILKLEEPNGILLHFKESRTPTDDSLQAPLFSIIEEGYAVPKSIDDELAFKVLYALLYGTQTYVSVMFFLLEQYSFLANHYYEKGYLEKYDEYFNSLNNVFLDFKSSLVGTGTSNNEGLLDRVLQVLMTVKNSEFLGLEKNGVDEMLNEKINLFNKIKEEIEGKQKMTLSETPENFAQISFDKDITTPIGDWRDGREVRYAVQYASETLFSKISHWSDPVSVREKACPTLRMPVDQTRRNVLVFRKFDSSKPQLVGEITPYLSNFIDIDRDLYNAASNPDSAVGFKEFTKLNYDGANIRATFDHGRTVFHAAAKSGNDKIMFGLTFLAKSTELNQPDKKGYTPIHVAADSGNAGIVNLLIQRGVSINSKTYHFLQTPLHLAAQRGFVTTFQRLMESPEININERDKDGFTPLHYAIRGGERILEAFLNQISIDVNAKSNTGLTPFHLAIIKNDWPVASTLLGSKKVDINAVDENNITALHYAAILGYLETTKQLINLKEINANVVSSPGLLSALHYAILYKHDDVASFLMRSSNVNVNLKALGGITPLHLAVIQGRKQILSLMFDIGVNIEQKTDEKYTPLHLAAMSKYPELIQILLDQGSNFEAKTNSGATPLHLATFKGKSQAALILLNNEVNWRDTDENGQMPIHGAAMTGLLDVAQAIISIDATVVDIEDKNSDTPLNLAAQNSHIDVIKYFIDQGADINTRNKKGLAPLLAFSKKGNLDMVKYLFDKNANVYIADNDGMNFFYYAVQNGHLNIVKYAMSEKDKFEWSNTDNNRRDECPNEECAISHFAVCDAVQFDRIEIVKYFVGTLGNFAICGPLHQAARYGHLDIVKYLVEEEFLSVDGSKTDTPLCYASENGHFTVVQYLVSNGAKVNHDCGNGMTAIDKAITKNHLQVVQFLAANGVDFRRKNSRGTTPFLTAVAENALHIAEYLIREKRQDININEQNVDKDTALHLAVYYKNLQMIKLLIKYGIDVTIRNAYDKTALDIAIDAKFSNIVEYLKTKSGKFRR
notes: Tetramer in the presence of Ca2+/Mg2+; monomers, dimers and trimers stand in the same sample; Disulfide bonds seen: C34-C91 (CC1), C968-C973 (CC2), and CC3 and CC4 in AR15-19; the model ends at G1195; also called α-LTX
B1: the stoichiometry N (usually a count of units in the complex or per binding partner) was 4 and 3 and 2.

For the origin of these results see article PMC11449929, “Structural basis of α-latrotoxin transition to a cation-selective pore” (Nature Communications, 2024).
